Target: interleukin-6 (IL-6), human recombinant (Homo sapiens, UniProt P05231 30-212)
Experiment: SWCNT near-infrared fluorescence quenching, (7,5) chirality; SWCNT complex, 5250 ng/mL IL-6, 1X PBS, 3 h; no response, p=0.65903; 0.5 mg/L SWCNT-ssDNA in 1X PBS (or 1X PBS + 10% FBS), 5250 ng/mL IL-6, 120 uL, triplicate, up to 180 min; pH and temperature not stated
Conditions: protein: commercial; label: noncovalently adsorbed on SWCNT

interleukin-6 (IL-6), human recombinant, sequence (P05231 30-212): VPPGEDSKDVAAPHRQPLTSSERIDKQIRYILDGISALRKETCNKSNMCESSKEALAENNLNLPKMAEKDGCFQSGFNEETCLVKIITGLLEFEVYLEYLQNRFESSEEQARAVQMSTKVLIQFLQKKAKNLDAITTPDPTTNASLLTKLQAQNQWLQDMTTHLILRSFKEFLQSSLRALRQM

GTGTGTGTGTGTGTGTGTGTGTGTGTGTGT (ssDNA) [(GT)15]: no binding.

Reference: paper doi:10.1101/2024.04.05.588290, “An optical aptamer-based cytokine nanosensor detects macrophage activation by bacterial toxins”
